Target: T1, TNFR1 (Homo sapiens, UniProt P19438)
T1 chain: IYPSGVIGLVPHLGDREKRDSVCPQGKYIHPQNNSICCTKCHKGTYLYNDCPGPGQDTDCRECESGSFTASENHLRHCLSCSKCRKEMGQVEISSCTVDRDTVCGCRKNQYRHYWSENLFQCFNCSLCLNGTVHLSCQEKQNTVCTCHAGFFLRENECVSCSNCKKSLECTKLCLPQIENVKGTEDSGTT
Assay: yeast display SC50

Binder	apparent Kd (screen)
E10F (designed binder) MTLQELLREFALRRAEAEAFRYALELLAEKFPEQKEYLLDLAEEIESQIRSLSGVDVEDVRKFLDKEWAWVKELLAEHPAELAEVEAARAARLAELRAEVEAKVAA	1.27 nM
K30N (designed binder) MTLQELLREEALRRAEAEAFRYALELLAENFPEQKEYLLDLAEEIESQIRSLSGVDVEDVRKFLDKEWAWVKELLAEHPAELAEVEAARAARLAELRAEVEAKVAA	0.539 nM
L38I (designed binder) MTLQELLREEALRRAEAEAFRYALELLAEKFPEQKEYILDLAEEIESQIRSLSGVDVEDVRKFLDKEWAWVKELLAEHPAELAEVEAARAARLAELRAEVEAKVAA	0.405 nM
M1Y (designed binder) YTLQELLREEALRRAEAEAFRYALELLAEKFPEQKEYLLDLAEEIESQIRSLSGVDVEDVRKFLDKEWAWVKELLAEHPAELAEVEAARAARLAELRAEVEAKVAA	0.593 nM
L7I (designed binder) MTLQELIREEALRRAEAEAFRYALELLAEKFPEQKEYLLDLAEEIESQIRSLSGVDVEDVRKFLDKEWAWVKELLAEHPAELAEVEAARAARLAELRAEVEAKVAA	2.25 nM
M1G (designed binder) GTLQELLREEALRRAEAEAFRYALELLAEKFPEQKEYLLDLAEEIESQIRSLSGVDVEDVRKFLDKEWAWVKELLAEHPAELAEVEAARAARLAELRAEVEAKVAA	0.49 nM
L27F (designed binder) MTLQELLREEALRRAEAEAFRYALELFAEKFPEQKEYLLDLAEEIESQIRSLSGVDVEDVRKFLDKEWAWVKELLAEHPAELAEVEAARAARLAELRAEVEAKVAA	0.446 nM
R21T (designed binder) MTLQELLREEALRRAEAEAFTYALELLAEKFPEQKEYLLDLAEEIESQIRSLSGVDVEDVRKFLDKEWAWVKELLAEHPAELAEVEAARAARLAELRAEVEAKVAA	0.956 nM
L26C (designed binder) MTLQELLREEALRRAEAEAFRYALECLAEKFPEQKEYLLDLAEEIESQIRSLSGVDVEDVRKFLDKEWAWVKELLAEHPAELAEVEAARAARLAELRAEVEAKVAA	0.49 nM
E33T (designed binder) MTLQELLREEALRRAEAEAFRYALELLAEKFPTQKEYLLDLAEEIESQIRSLSGVDVEDVRKFLDKEWAWVKELLAEHPAELAEVEAARAARLAELRAEVEAKVAA	0.405 nM
E36W (designed binder) MTLQELLREEALRRAEAEAFRYALELLAEKFPEQKWYLLDLAEEIESQIRSLSGVDVEDVRKFLDKEWAWVKELLAEHPAELAEVEAARAARLAELRAEVEAKVAA	0.539 nM
Y37E (designed binder) MTLQELLREEALRRAEAEAFRYALELLAEKFPEQKEELLDLAEEIESQIRSLSGVDVEDVRKFLDKEWAWVKELLAEHPAELAEVEAARAARLAELRAEVEAKVAA	7.78 nM
E16Q (designed binder) MTLQELLREEALRRAQAEAFRYALELLAEKFPEQKEYLLDLAEEIESQIRSLSGVDVEDVRKFLDKEWAWVKELLAEHPAELAEVEAARAARLAELRAEVEAKVAA	0.653 nM
E25C (designed binder) MTLQELLREEALRRAEAEAFRYALCLLAEKFPEQKEYLLDLAEEIESQIRSLSGVDVEDVRKFLDKEWAWVKELLAEHPAELAEVEAARAARLAELRAEVEAKVAA	0.49 nM
L38V (designed binder) MTLQELLREEALRRAEAEAFRYALELLAEKFPEQKEYVLDLAEEIESQIRSLSGVDVEDVRKFLDKEWAWVKELLAEHPAELAEVEAARAARLAELRAEVEAKVAA	0.172 nM

Results, then the binder that gave them:

apparent Kd (screen)	Binder
0.539 nM	A76V (designed binder) MTLQELLREEALRRAEAEAFRYALELLAEKFPEQKEYLLDLAEEIESQIRSLSGVDVEDVRKFLDKEWAWVKELLVEHPAELAEVEAARAARLAELRAEVEAKVAA
0.653 nM	K72G (designed binder) MTLQELLREEALRRAEAEAFRYALELLAEKFPEQKEYLLDLAEEIESQIRSLSGVDVEDVRKFLDKEWAWVGELLAEHPAELAEVEAARAARLAELRAEVEAKVAA
2.25 nM	I49N (designed binder) MTLQELLREEALRRAEAEAFRYALELLAEKFPEQKEYLLDLAEEIESQNRSLSGVDVEDVRKFLDKEWAWVKELLAEHPAELAEVEAARAARLAELRAEVEAKVAA
0.539 nM	E84C (designed binder) MTLQELLREEALRRAEAEAFRYALELLAEKFPEQKEYLLDLAEEIESQIRSLSGVDVEDVRKFLDKEWAWVKELLAEHPAELACVEAARAARLAELRAEVEAKVAA
0.653 nM	R97Q (designed binder) MTLQELLREEALRRAEAEAFRYALELLAEKFPEQKEYLLDLAEEIESQIRSLSGVDVEDVRKFLDKEWAWVKELLAEHPAELAEVEAARAARLAELQAEVEAKVAA
0.49 nM	K62I (designed binder) MTLQELLREEALRRAEAEAFRYALELLAEKFPEQKEYLLDLAEEIESQIRSLSGVDVEDVRIFLDKEWAWVKELLAEHPAELAEVEAARAARLAELRAEVEAKVAA
0.956 nM	S53F (designed binder) MTLQELLREEALRRAEAEAFRYALELLAEKFPEQKEYLLDLAEEIESQIRSLFGVDVEDVRKFLDKEWAWVKELLAEHPAELAEVEAARAARLAELRAEVEAKVAA
0.653 nM	A88I (designed binder) MTLQELLREEALRRAEAEAFRYALELLAEKFPEQKEYLLDLAEEIESQIRSLSGVDVEDVRKFLDKEWAWVKELLAEHPAELAEVEAIRAARLAELRAEVEAKVAA
0.446 nM	S51W (designed binder) MTLQELLREEALRRAEAEAFRYALELLAEKFPEQKEYLLDLAEEIESQIRWLSGVDVEDVRKFLDKEWAWVKELLAEHPAELAEVEAARAARLAELRAEVEAKVAA
0.956 nM	Q48C (designed binder) MTLQELLREEALRRAEAEAFRYALELLAEKFPEQKEYLLDLAEEIESCIRSLSGVDVEDVRKFLDKEWAWVKELLAEHPAELAEVEAARAARLAELRAEVEAKVAA
0.653 nM	A91Y (designed binder) MTLQELLREEALRRAEAEAFRYALELLAEKFPEQKEYLLDLAEEIESQIRSLSGVDVEDVRKFLDKEWAWVKELLAEHPAELAEVEAARAYRLAELRAEVEAKVAA
0.718 nM	E46R (designed binder) MTLQELLREEALRRAEAEAFRYALELLAEKFPEQKEYLLDLAEEIRSQIRSLSGVDVEDVRKFLDKEWAWVKELLAEHPAELAEVEAARAARLAELRAEVEAKVAA
0.869 nM	H78T (designed binder) MTLQELLREEALRRAEAEAFRYALELLAEKFPEQKEYLLDLAEEIESQIRSLSGVDVEDVRKFLDKEWAWVKELLAETPAELAEVEAARAARLAELRAEVEAKVAA
1.27 nM	E77I (designed binder) MTLQELLREEALRRAEAEAFRYALELLAEKFPEQKEYLLDLAEEIESQIRSLSGVDVEDVRKFLDKEWAWVKELLAIHPAELAEVEAARAARLAELRAEVEAKVAA
0.49 nM	V100Y (designed binder) MTLQELLREEALRRAEAEAFRYALELLAEKFPEQKEYLLDLAEEIESQIRSLSGVDVEDVRKFLDKEWAWVKELLAEHPAELAEVEAARAARLAELRAEYEAKVAA
1.27 nM	Q48V (designed binder) MTLQELLREEALRRAEAEAFRYALELLAEKFPEQKEYLLDLAEEIESVIRSLSGVDVEDVRKFLDKEWAWVKELLAEHPAELAEVEAARAARLAELRAEVEAKVAA
0.653 nM	E73F (designed binder) MTLQELLREEALRRAEAEAFRYALELLAEKFPEQKEYLLDLAEEIESQIRSLSGVDVEDVRKFLDKEWAWVKFLLAEHPAELAEVEAARAARLAELRAEVEAKVAA
0.446 nM	A80P (designed binder) MTLQELLREEALRRAEAEAFRYALELLAEKFPEQKEYLLDLAEEIESQIRSLSGVDVEDVRKFLDKEWAWVKELLAEHPPELAEVEAARAARLAELRAEVEAKVAA
0.653 nM	A98S (designed binder) MTLQELLREEALRRAEAEAFRYALELLAEKFPEQKEYLLDLAEEIESQIRSLSGVDVEDVRKFLDKEWAWVKELLAEHPAELAEVEAARAARLAELRSEVEAKVAA
2.48 nM	L41A (designed binder) MTLQELLREEALRRAEAEAFRYALELLAEKFPEQKEYLLDAAEEIESQIRSLSGVDVEDVRKFLDKEWAWVKELLAEHPAELAEVEAARAARLAELRAEVEAKVAA

Reference: paper PMC12416549 (2024)
